Test: label from the status in PepcDB records

Sequence	protein production
MKFLDNIKKNQSLMRFIETTQSHMVTAEIGNSSVVVAYYLLLSLFPLLIAVGNVLPYLRIDPNSVLPYIAEAIPKDVYKNLEPAIRSLLTQRSGGLLSVSALAAFWSASQSINALQNAMNKAFGVEQRKNFILVRVVSFLVILLFMVAIVGVVVILGLGQYIIELLQPIFHYSTSVIDTFQALKWPLTTVVLLVIMCLIYAVVPNRKLSLRSILPGAIFSTVGWMLLSQIFGLYVKYFSSRIASYQIIGSFIILMLWLNFAATIIILGAIVNAVVDEYLSGDKEKKQPSFEQRLFRWFKKKK	failed
MKFSFHTCESNYFKDPFFYIMLSISILFSYLFSYYTILKYVSLNATAYDLGIYVSILENTMHGHVMYANPLLINSFSEHFSPFLFVIYPIYWFFPYVKTLLIMQSVMISFSGLVIYLLAREIFFINNFKKDILLEMLALFISTSYILSPYIESPLSFDFHLMPFLILFVPLSFYFFMKKYKILNLIVLILIISLHSLFVIMVFFIISYQFIFRIRNEGNLNCHKIIRTIANINISDNLKKTPKSKYVLQKIVRSKTLIKIIITLILLVGYLYFASLMKTFIASGAVALSPPSTMSTGSVSSSLAGLFTDLFTRPMLIESAFLINFPDKIIFAFYAFANTGFLVFLDPLSLLMDIPYFLYAYLSSYGPYYSLGYQYSTMIIPFIFIGALFGIRKIVQSARATDSDDVRRTIKKILVGVISIVIVSSLFELPLDPISPRNIFIESGSMANFHEFAYNNGSEIAFELQKEIGESDPYLLTINNLYPVFAKDTNAYVIAFAWNSQLRNLIYGYHIEYLVNQPDSFWSNQFNPSMNDLIDNNTFISHYGVYMESFGQDGVIVYKLNYTGLPVLMIPYSAYLPATSFYIAAGEYNYSIVNGSYVYHNTTMGTAWFGPYTTLLPGRYNITYYLESVNSEANSSILLDVTTNAGTVTLNQTVINSSELPNGDLEEVTLHLTLNETKYSVEFRGMAIDWTGTLIFKGVKYSVY	failed
MKFSVLMSLYVKEQPAFLAECLASLTAQSYPADEIVILYDGKVTAELEVVVQQYAPILPLKQVRFAENRGLGNTLNDGLKYCSHEWVFRMDSDDICDVDRFAKQVAFIQQHPDVVVFGGQIAEFGQNVQDIVAYRAVPTTHQQIVKFSRFRCPFNHMTVAYQKSKVLAVGGYQGLQEDYTLWIKMIASGFLTANLTDVLVYARVGNGMVGRRRNFTQFKYEWQLYRLKTQAKLHSRIVGLGIFALRAIPRILPLAILQRIYKLLRK	failed
MKFSYKFSNLLGTIYRNGNLVFTPDGNSVISPVGNRITVYDLKNNKSRTLSLESRYNYTNIALSPDGSLLIAVNEKGEAQLISMMSCTVIHRHKFQTGVQCICFSPNGAFFAVAVQNVVLIFCAPGEITGEYNPFVLRRRFLGGFDDVTWLDWSSDSRLLAIGCRDSSTKIVAINYTKNFRTYNLSGHTDAIVACFFEANSLHLNTISRNGQLCLWECSLAPSDLEDAERPKIAPPQRKKEKKAVSDNESEDDVENVVEKDALKEESTKEAEDVNHIKNEDETKSHPFFYKKITRHYLADEPRKEQRDVQLTAANYNTRTKVLVVAFSSGAFYLYELPDVNMIHSLSISDYPISAALFNCTGDWVALASREIGQLLVWEWQSEQYIMKQQGHSSEMTCIAYSSDGQFIATGGEDSKVKLWNTQSSFCFVTFSEHTSGVTGIQFSRNKKFLVSSSLDGTVRAFDVNRYRNFRTFTSPNPAQFSCVAVDYSGELVVAGGQDVFDIFLWSVKTGKLLEIISGHEGPVVSIAFSPVATSSTLVSGSWDKTVKIWNCLESNSEHETIDAVSDVTNVTFSPSGEEIAVATLSGNITIFDIKSAGQVTTIEGRNDLSAGRLETDIITARKNAQANYFSTIEYSADGECILAAGKSANICIYHVREAILLKKFEITQNHSLDGLNDFISRKHLSEFGNMALVEEREELEGGRVAIRLPGVQRGDMSSRRFQQEVRVFSVKFSPTGQAFAAAGTEGLCIYALDKGVVFDPFDLSLEVTPKAVHESLKQQNYTKALVMSLKLNEPNLIALVLERVPYKDVELVCADLSPEFAQRLLQQLARQLQSTPHIEFYLQWSCCLLTKHGNQDGVFQHTGLLALHEVLSRKYEMLNKICDYNKYTLKVLLDRADKLEQKNEGKPNATEEDSDEEMLLIRSKDDENGQAQFSDEEESDSGSEEEMA	failed

From a protein production outcome set (Wang et al. 2014)
